Kd data for one molecule are collected here from publication doi:10.1101/2025.05.26.656162.

This data set addresses Sam68 N-terminal region (human, UniProt Q07666 1-96). As to the kind of experiment: single-molecule nanoaperture optical tweezers.

Sam68 N-terminal region, sequence (Q07666 1-96): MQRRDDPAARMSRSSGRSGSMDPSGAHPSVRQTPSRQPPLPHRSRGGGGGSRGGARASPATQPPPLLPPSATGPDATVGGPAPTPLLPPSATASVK

B1: G8.5 RNA (ssRNA)
RNA: GGGUGACACACUAGCUAUAGCAUUAAAAGACCGAGCAAGU
Molecule B1 came in with a Kd of approximately 8 µM.
